Legend:
[1] = Preliminary pharmacokinetics in mouse, serum activity at hGLP-1r by cAMP assay; assay type: in vivo; conditions: 1 mg/kg subcutaneously, C57 Bl/6J mice, cAMP assay in HBSS/HEPES 0.1% BSA
Procedure: Preliminary pharmacokinetics in mouse was examined as follows: C57 Bl/6J mice were injected with 1 mg/kg (subcutaneously) with either IP088 or GLP1a-Fc, and serum samples were taken over time (3 animals per time point). The serum samples were then measured for activity at the hGLP-1r by the cAMP assay in HBSS/HEPES 0.1% BSA, as described above.

[2] = Extended pharmacokinetics, serum ELISA for protein (Fc) detection; assay type: in vivo, CD male rats; conditions: 1 mg/kg subcutaneously or intravenously, serum out to 168 hours
Procedure: More extended pharmacokinetic assays to determine protein stability and activity were performed as follows. CD male rats (n=3) were injected subcutaneously or intravenously with 1 mg/kg IP088 or GLP1a-Fc. Periodic serum samples were obtained out to 168 hours. The serum samples were subjected to ELISA for protein (Fc) detection by the following method. ELISA plates (Costar 3690) were coated with Mouse anti-human IgG (JCD-10) 1/500 in PBS (final concentration 1 μg/ml). […] was added to each well and the plates were incubated overnight at 4° C. Following washing with PBS-Tween (PBS-T), the plates were blocked with […] 1% BSA in PBS for 1 h at RT with gentle shaking. Following washing with PBS-T, standards, and dilutions of […] samples were added (50 μl/well), and the plate was incubated for 2 h at RT with gentle shaking. Following washing […] biotinylated mouse anti-human IgG (JCD-10) diluted 1/1000 in ELISA incubation buffer (final concentration 0.5 μg/ml) was added to each well and the plates were incubated for 1 h at RT with gentle shaking. Following washing […] of Streptavidin-HRP diluted 1/1000 in ELISA incubation buffer was added to each well, and the plates were incubated for 45 min at RT with gentle shaking. […]

[3] = target: T1, human glucagon receptor (GCGr) (Homo sapiens, UniProt P47871); assay: BSA-cAMP assay, cells expressing human glucagon receptor; assay type: cell-based; conditions: Batch 1, read-out: hGCGr cAMP activity EC50
T1 construct: expressed in transfected cells; host or cells: HEK293s or CHO cells
T1 sequence (P47871 26-477): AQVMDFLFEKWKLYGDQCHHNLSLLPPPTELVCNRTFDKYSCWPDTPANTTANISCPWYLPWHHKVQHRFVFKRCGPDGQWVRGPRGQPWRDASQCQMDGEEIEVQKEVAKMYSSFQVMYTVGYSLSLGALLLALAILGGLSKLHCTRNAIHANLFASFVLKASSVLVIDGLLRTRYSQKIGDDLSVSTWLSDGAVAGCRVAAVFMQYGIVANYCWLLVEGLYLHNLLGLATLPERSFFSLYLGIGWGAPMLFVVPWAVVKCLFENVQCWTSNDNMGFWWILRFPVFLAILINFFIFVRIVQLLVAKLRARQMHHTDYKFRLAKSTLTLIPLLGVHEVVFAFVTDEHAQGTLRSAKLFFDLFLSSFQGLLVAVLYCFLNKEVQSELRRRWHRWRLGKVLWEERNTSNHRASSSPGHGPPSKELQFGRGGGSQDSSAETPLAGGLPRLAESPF

Row | Molecule | time for which serum activity at hGLP-1r is maintained in the nanomolar range in vivo [1] | PK profile by Fc ELISA (Cmax, bioavailability, half-life), in words [2] | EC50 [3]
1 | IP088: Fc fusion, IgG1-TM, SEQ ID NO:105; agonist peptide YSEGTFTSDYSKLLEEEAVRLFIEWLVKGP (SEQ ID NO:15) (protein, also: Fc fusion, IgG1-TM) YSEGTFTSDYSKLLEEEAVRLFIEWLVKGPAAAGGSGSTASSGSGSATGGGGAATHTCPPCPAPEF | at least 48 hours | equivalent PK profiles | –
2 | IP367 (protein) YSEGTFTSDYRILKERQAIDEFIAWLLKGGAAAGGSGSTASSGSGSATGGGGAATHTCPPC | – | – | > 1.3 µM

— patent publication US20160185837A1 (Medimmune Limited, priority 2013, published 2016)
